According to patent US20250011869A1, “TLR3 INHIBITORS FOR USE IN THE TREATMENT OF DISEASES ASSOCIATED WITH CARDIOVASCULAR CALCIFICATION” (priority 2021, published 2025):

Legend:
TLR3 and IFN-β = assay: RT-PCR of human dermal fibroblasts (wild type, empty vector control, Tlr3−/− CRISPR); format: cell-based; settings: 5 μg/ml, 6 h
Excerpt: Human dermal fibroblasts WT and Tlr3^−/− were kindly provided by the Jean-Laurent Casanova group and cultivated in DMEM with 4.5 g/L glucose (Lonza, Basel, Switzerland), 10% FCS (Sigma, St. Louis, MO), penicillin, streptomycin and L-Glutamine. Human dermal fibroblasts CTR cells were provided by the Villunger group and cultivated in DMEM with 4.5 g/L glucose (Lonza, Basel, Switzerland), 10% FCS (Sigma, St. Louis, MO), penicillin, streptomycin and L-Glutamine.
(§1) All cells were cultivated under standard conditions (37° C., supplied with 5% CO2). Passaging of the cells was performed at 70-90% confluency, and cells were only used until passage 7 as described previously^6. Polyinosinic: polycytidylic acid (Poly(I:C); Invivogen, San Diego, CA) was used to stimulate cells at a concentration of either 20 μg/mL or 5 μg/ml, depending on the assay. For blockade of TLR3, the commercially available dsRNA/TLR3 inhibitor ((R)-2-(3-Chloro-6-fluorobenzo [b] thiophene-2-carboxamido)-3-phenyl-propanoic acid) was used (Merck, Darmstadt, Germany) at a concentration of 1 μg/ml as described previously^1,7. LY294002 (Invivogen, San Diego, CA), a PI3K inhibitor, was used at a concentration of 10 μM. For blockade of IFNAR1, a specific blocking antibody (Invitrogen, Carlsbad, CA) was used at a concentration of 4 μg/ml. A stable HEK (human embryonic kidney) reporter cell line (TLR3/ISRE LUCPorter; Imgenex, USA) was purchased for luminometer assay experiments. Cells were cultivated according to the manufacturer's protocol in DMEM with 4.5 g/L glucose (Lonza, Switzerland), 10% FCS (Sigma, St. Louis, MO), penicillin/streptomycin, and 4 mM L-glutamine and […] puromycin (Gibco, USA) as selection agent. Reporter experiments were performed as described previously^8. For the protein expression SF21 cells were purchased at ThermoFisher (#11497013) and cultivated in Gibco™ Sf-900™ SFM supplemented with penicillin, streptomycin and L-Glutamine. In vitro stretch was applied using a Flexcell bioreactor (Flexcell International Corporation, Burlington, NC) applying 15% cyclic strain as described previously^9.
RT-PCR was performed as described previously^17. Total RNA was extracted from homogenized tissue or cell lysates using the Total RNA Miniprep Kit (New England BioLabs, Frankfurt, Germany) according to the manufacturer's instructions. We performed the PCR reaction in a final volume of 12.5 μL containing 2.5 μL of cDNA, 6.25 μL of Master Mix, 1 μL of fluorogenic hybridization probe, 10 μM of primer and 2.75 μL of distilled water. […] The result for the relative gene expression was calculated by the 2-DDCt method. Mean Ct values were calculated from double determinations and samples were considered negative if the Ct values exceeded 4017. […]

TLR3 = TLR3 (Homo sapiens, UniProt O15455); assay: HEK293 hTLR3 reporter cell assay (TLR3/ISRE LUCPorter, luminometer); format: cell-based; settings: putative ligands at increasing concentrations, 24 h (biglycan 5, 10, 20 μg/ml)
Procedure: as §1, with “For the protein expression SF21 cells were purchased at ThermoFisher (#11497013) and cultivated in Gibco™ Sf-900™ SFM supplemented with penicillin, streptomycin and L-Glutamine. In vitro stretch was applied using a Flexcell bioreactor (Flexcell International Corporation, Burlington, NC) applying 15% cyclic strain as described previously^9.” left out

B1: BGN: proteoglycan biglycan (BGN), a structural protein of the extracellular matrix (ECM) (protein)
chain: DEEASGAETTSGIPDLDSLPPTYSAMCPFGCHCHLRVVQCSDLGLKAVPKEISPDTTLLDLQNNDISELRKDDFKGLQHLYALVLVNNKISKIHEKAFSPLRKLQKLYISKNHLVEIPPNLPSSLVELRIHDNRIRKVPKGVFSGLRNMNCIEMGGNPLENSGFEPGAFDGLKLNYLRISEAKLTGIPKDLPETLNELHLDHNKIQAIELEDLLRYSKLYRLGLGHNQIRMIENGSLSFLPTLRELHLDNNKLSRVPAGLPDLKLLQVVYLHTNNITKVGVNDFCPVGFGVKRAYYNGISLFNNPVPYWEVQPATFRCVTDRLAIQFGNYKK
B1 was tested, and the “transcription of TLR3 and IFN-β” value (TLR3 and IFN-β; Tlr3−/− fibroblasts) was “no response”, the “transcription of TLR3 and IFN-β” value (TLR3 and IFN-β; wild type and empty vector control fibroblasts) was “induced transcription of TLR3 and IFN-β” and the “activation of TLR3 reporter cells” value (TLR3) was “activated TLR3 reporter cells in a dose-dependent fashion”.
